# The nanobody polyreactivity screen of Harvey et al. (2022)
# Assay: yeast display, Sf9 membrane polyspecificity reagent, FACS + sequencing; frameworks hold sequencing errors
# Outline: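 Genes from sorted yeast were amplified by colony PCR, read by MiSeq 2 × 250 sequencing and filtered on CDR length. These cells carried a synthetic nanobody library in Saccharomyces cerevisiae BJ5465 and were sorted by FACS into low and high (top ~1%) gates on anti-HA and streptavidin fluorescence. Polyreactivity is labelled according to the gate of origin.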
row,Sequence,polyreactivity (PSR sort gate)
1,QVQLVESCGGLFQAGGSLRLSCAPSGRTSWVYAMGWYRQAPAKERELVASIRKRTVVYADSVKGRFTISRENAKNTVYLQMNSLKPEETAVYYCNTDYSSTSQWRAANYWGQGTQVTVSS,high polyreactivity
2,QVQLVESCGGLIQAGGSLRLSCAASGSTFPYYAMGWYRQAPGKEREFVAAIRFSGSSTYYADSVKGRFTISRDNAMNTVFLQMNRLKPEDTAVYYCATDYWLPSYSYDYWGQGTQVTVSS,low polyreactivity
3,QVQLVESCGGLVQAGGSHRLSCDASGRIFTGYAMGWYRQAPGKERELVAAISWGGGRTYYADSVKGRFTISRDNAKNTVYLQMNSLKPEDTADYYCNRAAGGRSTPYYYWGQGTQVTVSS,high polyreactivity
4,QVQLVESCGGLVQAGGSLRLSCAASGFTFTWNAMGWYRQAPGKERELVAGITRGGSTNYADSVKGRFTISRDNAKNTVYLQMNSLKPEDTAVYYCNVSFYFHHAGYDYWGQGTQVTVSS,low polyreactivity
5,QVQLVESCGGLVQAGGSLRLSCAASGFTFYLYAMGWYRQAPGQERELVAAISSRGGTTYYADSVKGRFTISRDNAKNTVYLQMNSLKPEDTAVYYCNVARFYHIYDYWGQGTQVTVSS,high polyreactivity
6,QVQLVESCGGLVQAGGSLRLSCAASGITFGRNTMGWYRQAPGKERELVAAIDSGGNTYADSVKGRFTISRDNAKNTVYLQMNSLKPEDTAVYYCAVDGGEFSSYGYWGQGTQVTVSS,low polyreactivity
7,QVQLVESCGGLVQAGGSLRLSCAASGLTFIFNAMGWYRQAPGKEREFVADISSGVNTNYADSVKGRFTISRDNAKNTVYLQMNSLKPEDTAVYYCNKDVNAYGGASIRGYTMYYWGQGTQVTVSS,low polyreactivity
8,QVQLVESCGGLVQAGGSLRLSCAASGRIFSDYAMGWYRQAPGKERELVATITSGDSTNYADSVKGRFTISRDNAKNTVYLQMNSLKPEDTAVYYCNADRFADYDYWGQGTQVTVSS,low polyreactivity
9,QVQLVESCGGLVQAGGSLRLSCAASGRTFFGYAMGGYRQAPGKERELVAAINWGGASTYYADSVKGRFTISRDNAKNTVYLQMNSLKPEETAVYYCAADSVPSRPTYGRYDYWGQGTQVTVSS,low polyreactivity
10,QVQLVESCGGLVQAGGSLRLSCAASGRTFYFYAMGWYRQAPGKERELVAAISSTGGSTYYADSVKGRFTISRDNAKNTVYIQMNSLKPEDTAVYYCAARKSPRGRGEFYWGQGTQVTVSS,high polyreactivity
11,QVQLVESCGGLVQAGGSLRLSCAASGSIIFPYALGWYRQAPGKERELVAAISWSGGRTYYADSVKGRFTISRDNAKNTVYLQMNSLKPEDTAVYYCAADGYPYFYGDFDYWGQGTQVNVSS,high polyreactivity
12,QVQLVESCGGLVQAGGSLRLSCAASGSTFVYYAMGWYRQAPGKERELVAAISSGGSTYYADSVKGRFTISRDNAKNTVFLQMNSLKPEDTAVYDCAAKFGWGYTTYYYCGQGTQVTVSS,high polyreactivity
13,QVQLVESCGGLVQAGGSLRLSCAPSGSIFVCYAMGWYRQAPWKEREFVAAITSGRGTYYADSVKGRFTRSRDNAQITVYLQMNSLKPEDTEVYYCNTVWRTRSFRAPAVAYGYWGQGTQVTVSS,high polyreactivity
14,QVQLVESCGGLVQAGGSLRLSCDASVSIFYRNAMGWYRQAPGKERELVAAIRSGGSTNYADSVKGRFTISRDNAKNTVYLQMNSLKPEDTAVYYCAAGYFWRQYKMGYWGQGTQVTVSS,high polyreactivity
15,QVQLVESCGGLVQAGGSLRLSSAASGRIFYAYVMGWYRQAPGKERELVADITSSGSTNYADTVKGRFTISRDNAKKTVYLQLISLKQEDTAVFYCAKVPYGYQVRRNFGYWGQGTQVTVSS,low polyreactivity
16,QVQLVESDGGLDQAGRSLRLSFAASGTIFDPYSMGWYRQEPGKERELVAAISWSDSSTYYADSVKGRFTISRDNAKNTVYLQKNSLKPEDTAVYYCASDYDLYFYLYEYWGQGTQVTVSS,high polyreactivity
17,QVQLVESGAALVQAGGSLRLSCAASGRTFWFNAMGWYRQPPGKERELVASISLSVGSTYYADSVKGRFTISRDNAKNTVYLQMNSLKAEDTAVYNCAADQTVHISSYDYWGQGTQVTVSS,low polyreactivity
